Experimental data: a protein production outcome set (Wang et al. 2014)

Test: label from the status in PepcDB records

MQNYKSGELALLDVPVPGCKPGGVLVRTAYSLISTGTELMKVSEAGMSMLGKARSRPDQVAKVVQSVATNGVPATYRKVMGKLDSYTPLGYSLCGVVEQVGEGIDDVKAGDLVACAGNEHALHAELNWVPRNLYAPVPDGLAARDAAFGTVGSIALQGVRQGESRLGETALVIGLGLIGQLVVQLLVASGVRVVGADPDAERCELAERLGAAACGDPASPAVESAVVELTDGHGVDQVYLAAGGGSNQPVELAARLCRDRGRVVDIGKCRLDLPWNAYYEKELDVRFSRSYGPGRYDPEYELEGRDYPIGYVRWTERRNLACFLDLVARGRVDVAPLITRTADFDDAVETYRSLQDGALKAVAVLFRYPGQPDAEAPAGAPAVTVPGVRRGAGAAAPARAARTPVRLAFVGAGNYATSMLLPHLARREGVELSTVVTTTALSAANAQRKFGFGEATTDLDAVLGDASVDAVFVVTRHSSHAELTRKALLAGKAVFVEKPLALTGEELTGVLAAVEESGNDRVQVGFNRRFAPLLQEARKRFGARTGPASLRYLVNAGRLDHGSWYLQQGTEGSRFAGEGGHFVDTASWLLGADPVSVYALAPSSNEDLQVVLGYPDGSTATLSYVTTGAAGFPKETLDLVADGKVLQLDDFVRSSVYDGRKRWVSSRLPKARDKGQSAELAAFVRAVRTGGPMPVPLESLVATTAATLAVRTALAAGAPVGLAEAR
protein production: failed

MKLIRLIASPILMYVLAGVYALVLAIATFVENSSGPAVAREYFYYAPWFILLQLLQAVNLLAMFLQGGYFKRISKGSLIFHGALVFIWLGAAVTHYAGVTGIMHIREGETVDRMMRDEGAGMGNASLPFSVTLDDFRLKRYPGSHSPMSYESDLVIKKENEAPLQATVRMNKVIEVDGYRLFQSSFDPDEQGTVLSVSYDRPGMQITYIGYFLLFAGFVLTLFSKKSRFGRLRRELGEMKKNAPFCLLLFLGLSGALGTQASYAQETLSSSQLPCIPAPHARKFGSLVLLNPNGRLEPVNSYTSAILRKLYGADKLNSINSDQFFLNLLAFPDEWGGYPFIKVDNKDILQRFGRDGKYIAWQDVFDADGNYVLTDEVNAIYAKSASERKRMDSDLLKLDESVNIVYRIMQHQLLPLFPDENDVQGKWYSAGDEQTVFHDKDSLFVSKIMDWYIYELGNGVRTNNWKEADKIVDMMHIFQQAKSKTPAIDNQRVKAELLYNQLNLFFWCRLAYLILGGILLFIACGEIIADFKWGSRLSSILIVLLIAAFLAHTTGVLLRWYISERAPWANAYESMICTSWLLVGGGLLFARRFRILPALAGLLGGIMLFVAGLNHLNPEITPLVPVLQSYWLMSHVAIIMIGYVFFALCALTGLFNLILMNLLSATNRVKLLFRIREFTLLNEMAMILGLFFMTAGTFLGAIWANVSWGRYWGWDPKETWALISIVVYALVLHIRFIPLLKGKTTWCYNLLSVVSILSIIMTWFGVNYYLSGLHSYGKTEGGDLLLWIWGAGLCVVLALALFARRRLKKYS
protein production: failed

MEKREEAGEYHSKDFEWEFLKNIVENDPSLSHHLHHHHQNLSKYLPDSQPWQDFHSRHSSGKFFKERRYLLKEFPELVSCGENSKLLEIGCGNGSTVLPILRGSKNITVYACDCSSDALVRTKENIDRAISSVDNFHSFCCDFSTSEFPDWVACDRCRDKFMLNHSGGSESKHCIGGVDFVTLIFTLSAVPKERMPRAIKECFAVLKPGGLLLFRDYGLYDMTMLRFEPEKRVGFREYVRSDGTLSYFFCLDTARKLFTDAGFIEVELEYCCVKAVNRRKGKDMYRVWVHGKFQKPFSN
protein production: failed

MSSALLRVAYAYDRLRAHPPEVAGQIATAMASAVHPKGEEPVFLELGVGTGRIALPLIARGYRYIALDADAAMLEVFRQKIAGVDRKVQVVQADARAIPLPDESVHGVIVVHLWHLVPDWPKVLAEAIRVLKPGGALLEGWDQAEESPEWTLQERWRAFAAEEGFPVERGLHAKRLKEVEEALRCLGLKPRTREVARWREERTPREALEALSERLYSFTQGLPEPVHARVMERLWAWAEAELGDLDRPFPVEKRFLLRVSRLG
protein production: failed

IESIPMPILYKNMEGSYLGCNSKFLELSGKSREEVIGFRVGDLLDKKSAMEIEECERHLKEKGECPSHDIRFVDHRGEECFIRVYKTLLTNNFDEPVGILGFFVDMS
protein production: failed

MSQILIGVGWVLFTVLLYQLSKKIYKLFPTPFTIPMLVATGLMAFLFIVLDIPYQHYMESGGGWIAKLLGPGVVAFAIPLYKQRHVLQKYVVPIAGGVLVGTTVAIASDFAIASLMGTDKSLILSSLPKSVTMPVAMSVSEQVGGVPSLTAAFVVIAGITGTITGPLLLKWSRVTNSVGKGIGFGCASHIMGVMRAMKNNEHEGVIGSVTMTLTAILTCLLGPLFAMMFM
protein production: failed

MSLIYAQILAGGKGTRMGNVSMPKQFLPLNGKPIIVHTVEKFILNTRFDKILISSPKEWMNHAEDNIKKYISDDRIVVIEGGEDRNETIMNGIRFVEKTYGLTDDDIIVTHDAVRPFLTHRIIEENIDAALETGAVDTVIEALDTIVESSNHEVITDIPVRDHMYQGQTPQSFNMKKVFNHYQNLTPEKKQILTDACKICLLAGDDVKLVKGEIFNIKITTPYDLKVANAIIQERIANEGHHHHHH
protein production: not failed

MSTAVFLGFIVLSLYLALRSRKGTGSQSAHDFFVASRQFGAFLVFFLAAGEIYSVATMVGFAGGIYAKGPTYGIWFLGYILLAYPLGYFLAPKIWEAGQRFNAITLADLFKGHFDNRAVEFVVALSSILFLLPMAQLQFTGLIAAFRGLGWSFQPLHLVLIAAVLAFTYIAISGVRSSAYVAVLKDVLMVVAIVVTGLAVAGEVGVAKVFHVASEHVSNRMNDEQLRFSMSTILFQSLGFYMMPISVQFIYTAKSADTIRRTQVAMPLYMLMYPFLVLASYYALTRSDTLATANEAFFVAATHLLPSWLLGLVAAAAALSGLLVLTGMCLAIGPIVTRNLLPHLPESRQKAGAKGVIVVYLIVSILMTLMAPNLMLTLINTTYYGVTQFLPGMIVILFSLRVRPSAVVLGILTGQLMAVVLYLEKVDLGGINLGLPCLAANVVVMVVLNLLRTPKGLQATA
protein production: failed

MARPQPCGPPHARCGSPSLPERPLQVKVVGLFSCPNFQIAKSAAENLKNNHPSKFEDPILVPLQEFAWHQYLQEKKRELKNETWEYSSSVISFVNGQFLGDALDLQKWAHEVWDIVDIKPSALYDALTEDFSAKFLRDTKHDFVFLDICIDSSPIGRLIFELYCDVCPKTCKNFQVLCTGKAGFSQRGIRLHYKNSIFHRIVQNGWIQGGDIVYGKGDNGESIYGPTFEDENFSVPHNKRGVLGMANKGRHSNGSQFYITLQATPYLDRKFVAFGQLIEGTEVLKQLELVPTQNERPIHMCRITDSGDPYA
protein production: failed

MILNIVTIVSNFIFIALFYQLFVDLFDWSKMIKMSPQNISKLKVFILLISIVGGYVVSHFLLEVIQLCQSIFWALQ
protein production: failed

IIAGETSIPSQGENMPAYHARPKNADGPLPIVIVVQEIFGVHEHIRDLCRRLAQEGYLAIAPELYFRQGDPNEYHDIPTLFKELVSKVPDAQVLADLDHVASWAARHGGDAHRLLITGFCWGGRITWLYAAHNPQLKAAVAWYGKLVGEKSLNSPKHPVDIAVDLNAPVLGLYGAKDASIPQDTVETMRQALRAANATAEIVVYPEADHAFNADYRASYHEESAKDGWQRMLAWFAQY
protein production: not failed

MPVLATSLVSLKVEEPYLPPRNWESLPSQSGRFLPPTRSSASSSSSSSFVSESSLVRLALNALQGVESSLISIEQLSSAFCSEPADRTFHKIPSLWHRLSSTDALGQILRDIGCFGSLVFLLHKFVDHFTRLNLDVESAVEGQGSCKIGENEEVNNKSCYTLVNQAFAIAVRRVLEGYISGLDTLCASIELRRSSNIVDGSDHGSSRLGSLTNVVHPKITLLEVFLHTRELRTQIEALANICDLYDIALSYCASPWECLITEATTRFHGFYRGSDLLTYLYSQLQVADPTHSAMLKFLFLKTCEPYCEFIRSWMFKAELNDPHKEFIVECRSESTSFSWNKPGISPLKSVRERGGLVPCFLNGFLEPIVRAGQQLQVITKLLELCNLPASGHKNYTDLLPCWTYFSTTSPGYPSPITFSKLHIEVMIKKRDDYYRMMQEKLGDFSEKFEVFPGQVPGAISLPISYGDGDKNSIYFTLDESLLIPSTMAIDLTRDQSGSDSDDQNTEDRWFSEIDASCSSECSSTRDSLEASEVGLLDSQSTLVGPPPNYLSALRFSVASNGNCNQNLVQHSDSGYIDNNLVRQGEKADINHQWVDTKPEESTGVCEDDKFRGPLLIKSWPLGGLPRNPFCVDKKSADDDSEDPRNYSGARMEQRHLMNTDERKLFLNNISTSGSCSKHERRHDVLENCLSSKLDLMKDTKVNYPNDVLSMNPLVRCDFLRKHGNTNKRNQGKSLPWFDFSAVDDPSKTCITRIPVRVPIDFQKESHSPQTDRKSHRHANQERFDVEDPKVSSSQLSSGIKGCAEEKKSNAFGGGRWESMLRRSNNPETSAFSDRRQDSSGTFELPLDFVIDKCLLQEIHLQYPSRYFHLLEIYIFSKLAIKLLEEGFGLQEHLLALRRYHFMELADWADVFVVSLWHHKWLVTEADKRIAEIQGFLESSIQRSSCERDICKDRIFLYKRQGTMHIPPSTIGVRSFDFLRLGYRVDWPISIILTCDALTAYADVFSFLVQVKLAAYVLTDVWCSLKVKDMMDLESVHMAYLSEALRIGIQSTDRVPNDSWTKTLGINTSQNFDKELKELHKCHLRSPKHGKYGLSRFWDYLNFNLYYSDILHDSNIFSLIP
protein production: failed

TGDASKCLATGPGIASTVKTGEEVGFVVDAKTAGKGKVTCTVLTPDGTEAEADVIENEDGTYDIFYTAAKPGTYVIYVRFGGVDIPNSPFTVMATDGEVTAVEEAPVNACP
protein production: not failed

MNARDNKFNTWNDSRGNYWSDYEGSDENGDGIGDSAYAVNPEAGSMDYMPLMEYLHSSPVLPTARFTSDITEGFAPLSVRFKDFSENATSRLWMFGDGNTSDSPSPLHTFFNEGEYIVSLIVSNENDSDSASVTIRALEHHHHHH
protein production: not failed

MLKRIFTVGGFTLLSRLTGFARDIMLAAILGAGPVADAFFVALRLPNHFRAIFAEGAFNAAFVPAYAHVHGEKGEASAKLFADRIFTLLFLSQLVLLAVALAFMPQMMSILAPGFTDDPEQRALAIELTRITFPYLLLITLVTLYGGILNVMQRFASAAAASIFLNISMMATLALAAFFPSAGHAAAWGVLISGVLQYFLLAGDLSLHGGLPRFARPKLDEDVRAFFRALGPATLGSMGTQLALFADTIIATFLPAGALSALYYADRLNQLPIGVIGIAIGTVLLPEMSRQLTAGDDAGAKASQRRAFEFTLLFSVPFVAAFLTVPDEIMRAMFARGAFTRADAISAGTTLAAYAIALIPFVLIRSAVAPFYARKDTATPVKAALTGVATNVVLKFALMGSLAQVGLALATAAGAWINLLLVIFFSVRAGYLEFDRELVRAILKFGIIGVLLGAALWLTAWLAPPYLALLPALRSEAALALLILVGAVIYGAAILILFGPRWIKRLLRG
protein production: failed

MVVSKMNKDAQMRAAINQKLIETGERERLKELLRAKLIECGWKDQLKAHCKEVIKEKGLEHVTVDDLVAEITPKGRALVPDSVKKELLQRIRTFLAQHASL
protein production: failed

MTFEIAFVLLSLLGMVIALILDKMRPGMILFSVVVLFLCAGILTPKEMLEGFSNKGMITVALLFLVSEGIRQSGALGQVVKKLLPQKRTTVFRAQLRLLPAVAFISAFLNNTPVVVIFAPIIKRWARTVHLPATKFLIPLSYVTILGGICTLIGTSTNLVVHGMILESGHEGFTMFELGKVGIFIAIAGIIYLFAFSKKLLPDARPDTAVPDEEVEEGDKLHRVEAVLGARFPGINKTLGEFNFKRHYGAEVKEIKKRNGQRFINNLEEVILREGDTLVVMADDTFIPTWGESSVFVLLANGNDNEPIPGKGKRWFALILLILMIAGATIGELPVVKEMFPDMKLDMFFFVSVTTIIMAWTKIFPARKYTKYISWDILITIACAFAISKAMVNSGVADKVAGFIIGMSHDYGPHVLLAVLFIITNLFTELITNNAAAALAFPLALSLSVQLGVDPTPFFVVICMAASASFSTPIGYQTNLIVQGIGNYKFMDFVRIGLPLNLITFLISIFLIPLIWPF
protein production: failed
